{"source": "paper PMC3901934", "about": "“CAS directly interacts with vinculin to control mechanosensing and focal adhesion dynamics” (Cellular and Molecular Life Sciences: CMLS, 2013)", "binders": {"B1": {"name": "full-length CAS (in Vin-/- MEFs) (natural protein, mouse (endogenous in MEFs), UniProt Q61140 1-874, looked up)", "chain": "MTVPNVLAKALYDNVAESPDELSFRKGDIMTVLERDTQGLDGWWLCSLHGRQGIVPGNRLKILVGMYDKKPVGPGPGPPATPPQPQPSLPQGVHAPVPPASQYSPMLPTAYQPQSDNVYLVPTPSKTQQGLYQAPGPNPQFQSPPAKQTSTFSKQTPHHSFPSPATDLYQVPPGPGSPAQDIYQVPPSAGIGHDIYQVPPSLDTRGWEGTKPPAKVVVPTRVGQGYVYEAAQTEQDEYDTPRHLLAPGPQDIYDVPPVRGLLPNQYGQEVYDTPPMAVKGPNGRDPLLDVYDVPPSVEKGLLSSSHHSVYDVPPSVSKDVPDGPLLREETYDVPPAFAKPKPFDPTRHPLILAAPPPDSPAAEDVYDVPPPAPDLYDVPPGLRRPGPGTLYDVPRERVLPPEVADGSVVDDGVYAVPPPAEREAPTDGKRLSASSTGSTRSSQSASSLEVVVPGREPLELEVAVESLARLQQGVSTTVAHLLDLVGSASGPGGWRGTSEPQEPPAQDLKAAVAAVHGAVHELLEFARGAVSNATHTSDRTLHAKLSRQLQKMEDVYQTLVVHGQVLDSGRGSPGFTPEDLDRLVACSRAVPEDAKQLASFLHGNASLLFRRTKAPGPGPEGSSSLHPNPTDKASSIQSRPLPSPPKFTSQDSPDGQYENSEGGWMEDYDYVHLQGKEEFEKTQKELLERGNIMRQGKGQLELQQLKQFERLEQEVSRPIDHDLANWTPAQPLVPGRTGGLGPSDRQLLLFYLEQCEANLTTLTDAVDAFFTAVATNQPPKIFVAHSKFVILSAHKLVFIGDTLSRQAKAADVRSQVTHYSNLLCDLLRGIVATTKAAALQYPSPSAAQDMVDRVKELGHSTQQFRRVLGQLAAA"}}, "target": "T1, Vin WT GFP (GFP-fused vinculin WT) (UniProt Q64727 1-1066)", "T1 sequence (looked up)": "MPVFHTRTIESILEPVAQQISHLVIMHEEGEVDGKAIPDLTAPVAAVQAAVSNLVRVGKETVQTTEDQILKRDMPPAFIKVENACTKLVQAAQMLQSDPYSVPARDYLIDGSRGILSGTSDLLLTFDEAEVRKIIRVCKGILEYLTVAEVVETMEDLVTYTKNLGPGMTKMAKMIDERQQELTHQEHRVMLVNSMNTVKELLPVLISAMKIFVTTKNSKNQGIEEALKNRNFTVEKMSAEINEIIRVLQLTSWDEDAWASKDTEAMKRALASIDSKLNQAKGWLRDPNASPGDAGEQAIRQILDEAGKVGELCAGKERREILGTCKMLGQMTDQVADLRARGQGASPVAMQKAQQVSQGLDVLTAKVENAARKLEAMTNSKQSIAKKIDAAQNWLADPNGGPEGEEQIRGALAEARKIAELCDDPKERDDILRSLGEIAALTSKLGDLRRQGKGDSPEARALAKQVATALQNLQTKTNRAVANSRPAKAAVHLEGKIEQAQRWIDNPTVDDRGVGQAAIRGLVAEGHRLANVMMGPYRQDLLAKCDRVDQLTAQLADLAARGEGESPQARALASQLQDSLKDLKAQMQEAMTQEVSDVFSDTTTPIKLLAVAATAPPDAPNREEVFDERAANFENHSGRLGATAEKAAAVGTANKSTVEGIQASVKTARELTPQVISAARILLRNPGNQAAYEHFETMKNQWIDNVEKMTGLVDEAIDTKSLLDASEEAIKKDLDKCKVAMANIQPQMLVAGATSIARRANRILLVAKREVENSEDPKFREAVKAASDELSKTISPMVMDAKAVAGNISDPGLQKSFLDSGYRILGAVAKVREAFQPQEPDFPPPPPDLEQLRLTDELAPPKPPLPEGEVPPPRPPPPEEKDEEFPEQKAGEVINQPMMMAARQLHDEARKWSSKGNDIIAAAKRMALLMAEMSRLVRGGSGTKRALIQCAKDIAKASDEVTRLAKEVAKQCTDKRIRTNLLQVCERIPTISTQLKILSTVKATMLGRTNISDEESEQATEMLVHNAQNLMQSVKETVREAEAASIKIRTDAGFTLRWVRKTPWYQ", "assay": "cell-based or functional assay", "data": [{"binder": "B1", "values": [{"measurement": "fold change of CAS Y410 phosphorylation after 20 % static stretch for 10 min, Vin-/- MEFs re-expressing WT vinculin", "result": 2.4, "unit": "fold"}]}]}
